Legend:
[1] = target: T1, recombinant human ROR1-His (Sino Biological, 13968-H08H) (human, UniProt Q01973 30-406); assay: BLI (Octet), ROR1-His on Anti-Penta-His or AR2G biosensor, IgG 30 to 0.021 nM, 1:1 fit
T1 construct: extracellular domain; Bought protein; also called ROR1-HIS protein; not shown: His tag
Method: A 96-well black microplate (greiner bio one) was mounted on a biosensor tray case, and 200 10×KB or DW was added to each of 8 wells. Then Anti Penta His biosensors or 8 AR2G biosensors (ForteBio, USA) were inserted to hydrate for 10 minutes. 600 of the assay samples were diluted 2-fold or 3-fold to the appropriate assay concentrations, using 1×KB or 10×KB to 30 to 0.021 nM. To immobilize the antigen, recombinant human ROR1-His (Sino Biological, 13968-H08H) was diluted to 1 /ML with 10×KB or Sodium Acetate pH5 buffer. Immobilization was fixed at a threshold of 0.3 nm in the loading step. The association assay was carried out for 3 to 10 minutes, and the dissociation assay was carried out for 20 minutes. According to the Octet program template, the buffer was placed in a new 96-well black microplate according to order. As Baseline1, 200 10×KB or DW was placed. Then 200 each of 1 /mL of the antigen to be loaded, the ROR1-HIS protein, was added. As Baseline2, 200 10×KB or 1×KB was placed. Then to each well 30 to 0.021 nM of the diluted antibody and 200 each of 10×KB buffer or 1×KB corresponding to a reference blank was added. The temperature of the test plate was fixed at 30° C. After all of the samples were introduced, the equipment was started, and after the assay was completed, results were uploaded to the Octet Analysis 90 software, with KD values analyzed through 1:1 fitting. By obtaining KD values through the Octet assay method, it was confirmed that the anti-ROR1 antibody had strong binding potential to ROR1 antigen.

[2] = target: T2, recombinant mouse ROR1 protein (Acrobiosystems, RO1-M5221) (mouse, UniProt Q9Z139 30-403); assay: ELISA, wells coated with recombinant mouse ROR1 protein, IgG titrated, HRP anti-Fab detection, OD (450-650nm)
T2 construct: Bought protein; also called mouse ROR1 antigen
Method: (§1) Anti-ROR1 antibody antigen binding affinity was assessed using an ELISA-based solution binding assay. Specifically, a 96-well microtiter plate (Nunc-Immuno Plates), NUNC) was coated for 16 hours at 4° C. with the ROR1 protein described below at a concentration of 1 in PBS solution, and non-specific binding sites were blocked for 2 hours with 3% BSA (bovine serum albumin). Here, the ROR1 protein used was, in the case of human ROR1, the ROR1-Fc or recombinant human ROR1-His (Sino Biological, 13968-H08H) of Embodiment 1. The ROR1-His used in ELISA, as stated in the above sentence, was a protein from the Sino Biological company (13968-H08H), and the ROR1-His of Embodiment 1 or recombinant mouse ROR1 protein was used (Acrobiosystems, RO1-M5221-100 )
(§2) Subsequently, the anti-ROR1 antibodies prepared in Embodiment 3 were added at the concentrations stated in FIG. 2 to a 96-well microtiter plate, and binding capacity was analyzed using ELISA as follows. Specifically, after incubating for 2 hours, the plate was washed 5 times with PBS containing 0.05% Tween 20, then HRP-conjugated Fab multiclonal antibody reagent (Perce, 31414) was diluted to 1:10,000 and placed in the washed microtiter plate. After reacting for 1 hour at 37° C., the ROR1 antibodies bonded to the plate were detected. After the reaction, color development was performed using TMB (Tetramethylbenzidine, Sigma, T0440). The enzymatic reaction was stopped using 0.5 mol/L sulfuric acid, and absorbance at 450 nm and 650 nm was measured (450 nm-650 nm) using a micro plate reader (Molecular Device)

[3] = target: T3, human ROR2 over-expressed on CHO cells (CHO-human ROR2) (human, UniProt Q01974 34-943); assay: flow cytometry on CHO-S cells transiently over-expressing human ROR2, FITC anti-human Fc detection, MFI ratio to 2nd Ab alone
T3 construct: whole, on cells; Negative control; also called family protein human ROR2
Excerpt: (§3) For this experiment, using cell lines (FIG. 5 and FIG. 7, respectively) transiently (CHO-human ROR1, CHO-human ROR2, CHO-mouse ROR1) or stably (MC38-human ROR1) transfected with ROR1 gene to achieve artificial over-expression of ROR1 protein, an ROR1-expressing cell line (JeKo-1, Mino) (FIG. 6), a non ROR1-expressing cell line (MCF7) (FIG. 6) and a FACSCalibur (BD Biosciences) device was used to measure the degree to which anti-ROR1 antibody and ROR1 were bound, as follows. […] JeKo-1, Mino, CHO-human ROR1, CHO-mouse ROR1 and MC38-human ROR1 are all cell lines which express human ROR1 or mouse ROR1.
(§4) Specifically, after dissociating each cell line and washing in PBS, the number of cells was counted and adjusted to 2×10⁵ cells/200 PBS. Then the respective ROR1 monoclonal antibodies prepared in Embodiment 3 were diluted 5 times from 10 /mL or 10 /mL, then reacted for 1 hour at 4° C. After the reaction, the cells were washed in PBS, then FITC-marked constant region (Fc) specific antibody (Goat anti-human IgG FITC conjugate, Fc specific, Sigma, F9512, concentration 20 mg/ml) was suspended in 2 /1×10⁵ cells/200 PBS and reacted for 1 hour at 4° C. As for identification of the degree of expression of the transiently over-expressed human ROR1, human ROR2 and mouse ROR1, a commercially available FACS analysis antibody (anti-ROR1: R&D Systems, FAB 2000G, anti-ROR2: R&D, FAB20641P) was used. After reacting the cells were washed in PBS and analyzed using a FACSCalibur device. The negative control (2nd Ab) was only treated with FITC-marked constant region (Fc) specific antibody. The shifted readings for the respective experimental groups treated with ROR1 monoclonal antibody were compared against the shifted reading for the control group (MFI Ratio: MFI of anti-ROR1/MFI of 2nd Ab).

[4] = target: T1, recombinant human ROR1-His (Sino …); assay: ELISA, wells coated with human ROR1 protein (sheet: 'human ROR1'; text: ROR1-Fc or ROR1-His), IgG titrated, HRP anti-Fab detection, OD (450-650nm)
Method: as §1, §2

[5] = target: T4, human ROR1 expressed on the cell surface (human, UniProt Q01973 30-937); assay: flow cytometry on MC38-human ROR1 cells, IgG titrated, FITC anti-human Fc detection, MFI ratio to 2nd Ab alone; log axis whose first tick is printed 0
T4 construct: whole, on cells; also called cell surface-expressed ROR1 antigen; ROR1 on JeKo-1, Mino, CHO-human ROR1, MC38-human ROR1 and other cancer cell lines
Excerpt: as §3, §4

[6] = target: T1, recombinant human ROR1-His (Sino …); assay: ELISA, wells coated with human ROR1 protein (sheet: 'human ROR1'; text: ROR1-Fc or ROR1-His), IgG titrated, OD(450nm-650nm); x axis 'conc(nM)' numbered -5 to 2 (log10)
Method: as §1, §2

[7] = target: T5, mouse ROR1 over-expressed on CHO cells (CHO-mouse ROR1) (mouse, UniProt Q9Z139 30-937); assay: flow cytometry on CHO-S cells transiently over-expressing mouse ROR1, FITC anti-human Fc detection, MFI ratio to 2nd Ab alone
T5 construct: whole, on cells; also called cell surface-expressed mouse ROR1
Excerpt: as §3
Specifically, after dissociating each cell line and washing in PBS, the number of cells was counted and adjusted to 2×10⁵ cells/200 PBS. Then the respective ROR1 monoclonal antibodies prepared in Embodiment 3 were diluted 5 times from 10 /mL or 10 /mL, then reacted for 1 hour at 4° C. […] After reacting the cells were washed in PBS and analyzed using a FACSCalibur device. […] The shifted readings for the respective experimental groups treated with ROR1 monoclonal antibody were compared against the shifted reading for the control group (MFI Ratio: MFI of anti-ROR1/MFI of 2nd Ab).

[8] = target: T2, recombinant mouse ROR1 protein …; assay: ELISA, IgG on coated mouse ROR1
Method: as §1
Subsequently, the anti-ROR1 antibodies prepared in Embodiment 3 were added at the concentrations stated in FIG. 2 to a 96-well microtiter plate, and binding capacity was analyzed using ELISA as follows. […] After reacting for 1 hour at 37° C., the ROR1 antibodies bonded to the plate were detected. […] The enzymatic reaction was stopped using 0.5 mol/L sulfuric acid, and absorbance at 450 nm and 650 nm was measured (450 nm-650 nm) using a micro plate reader (Molecular Device)

[9] = target: T5, mouse ROR1 over-expressed on CHO cells …; assay: flow cytometry, CHO-mouse ROR1 cells
Excerpt: as §3, §4

T5 sequence (Q9Z139 30-937): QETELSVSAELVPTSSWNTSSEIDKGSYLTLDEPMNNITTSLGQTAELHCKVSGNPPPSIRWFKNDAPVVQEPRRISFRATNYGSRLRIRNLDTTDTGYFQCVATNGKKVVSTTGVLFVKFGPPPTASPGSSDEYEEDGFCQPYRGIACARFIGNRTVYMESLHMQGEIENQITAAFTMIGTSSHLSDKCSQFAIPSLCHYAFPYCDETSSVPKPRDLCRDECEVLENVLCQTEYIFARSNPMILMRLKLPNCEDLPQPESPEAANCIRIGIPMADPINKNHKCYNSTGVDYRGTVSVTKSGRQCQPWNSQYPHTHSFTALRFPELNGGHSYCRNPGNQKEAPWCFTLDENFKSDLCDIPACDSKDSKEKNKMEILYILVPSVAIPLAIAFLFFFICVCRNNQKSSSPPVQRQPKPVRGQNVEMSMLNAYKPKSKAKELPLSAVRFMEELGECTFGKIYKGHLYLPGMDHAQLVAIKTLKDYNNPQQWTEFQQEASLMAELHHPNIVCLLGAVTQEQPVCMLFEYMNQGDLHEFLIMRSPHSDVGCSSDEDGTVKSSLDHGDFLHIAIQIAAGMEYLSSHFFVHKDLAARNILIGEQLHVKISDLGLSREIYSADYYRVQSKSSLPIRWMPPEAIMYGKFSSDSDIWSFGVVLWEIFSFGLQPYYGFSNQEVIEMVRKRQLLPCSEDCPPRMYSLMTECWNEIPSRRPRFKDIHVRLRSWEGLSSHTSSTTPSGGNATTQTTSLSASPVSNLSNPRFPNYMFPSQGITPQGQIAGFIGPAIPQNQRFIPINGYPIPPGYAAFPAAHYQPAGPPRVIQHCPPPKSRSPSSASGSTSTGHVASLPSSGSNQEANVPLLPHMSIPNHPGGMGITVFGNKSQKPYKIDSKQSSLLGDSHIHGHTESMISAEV
T4 sequence (Q01973 30-937): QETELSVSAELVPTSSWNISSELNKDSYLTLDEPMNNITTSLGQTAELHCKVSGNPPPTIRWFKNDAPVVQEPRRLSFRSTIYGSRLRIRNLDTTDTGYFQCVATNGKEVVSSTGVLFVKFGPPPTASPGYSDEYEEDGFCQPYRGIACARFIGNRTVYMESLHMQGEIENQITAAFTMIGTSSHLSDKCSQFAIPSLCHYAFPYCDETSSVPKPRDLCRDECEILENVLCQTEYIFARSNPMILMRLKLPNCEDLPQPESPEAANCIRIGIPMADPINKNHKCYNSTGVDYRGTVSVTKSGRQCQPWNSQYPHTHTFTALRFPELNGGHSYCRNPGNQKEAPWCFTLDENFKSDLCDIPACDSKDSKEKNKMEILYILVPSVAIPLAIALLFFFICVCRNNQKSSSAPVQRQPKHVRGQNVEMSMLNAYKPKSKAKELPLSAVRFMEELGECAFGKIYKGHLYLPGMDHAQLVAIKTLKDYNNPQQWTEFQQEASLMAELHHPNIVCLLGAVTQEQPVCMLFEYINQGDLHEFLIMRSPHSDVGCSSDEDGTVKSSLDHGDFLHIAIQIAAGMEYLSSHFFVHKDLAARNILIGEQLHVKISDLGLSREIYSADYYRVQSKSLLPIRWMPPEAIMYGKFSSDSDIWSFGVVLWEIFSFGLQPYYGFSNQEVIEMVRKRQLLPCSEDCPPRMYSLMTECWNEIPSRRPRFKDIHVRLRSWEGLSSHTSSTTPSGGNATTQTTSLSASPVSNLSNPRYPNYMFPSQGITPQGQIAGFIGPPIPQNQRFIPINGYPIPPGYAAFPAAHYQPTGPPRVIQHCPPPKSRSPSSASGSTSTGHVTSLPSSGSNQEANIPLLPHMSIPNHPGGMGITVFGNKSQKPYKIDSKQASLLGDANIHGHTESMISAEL
T1 sequence (Q01973 30-406): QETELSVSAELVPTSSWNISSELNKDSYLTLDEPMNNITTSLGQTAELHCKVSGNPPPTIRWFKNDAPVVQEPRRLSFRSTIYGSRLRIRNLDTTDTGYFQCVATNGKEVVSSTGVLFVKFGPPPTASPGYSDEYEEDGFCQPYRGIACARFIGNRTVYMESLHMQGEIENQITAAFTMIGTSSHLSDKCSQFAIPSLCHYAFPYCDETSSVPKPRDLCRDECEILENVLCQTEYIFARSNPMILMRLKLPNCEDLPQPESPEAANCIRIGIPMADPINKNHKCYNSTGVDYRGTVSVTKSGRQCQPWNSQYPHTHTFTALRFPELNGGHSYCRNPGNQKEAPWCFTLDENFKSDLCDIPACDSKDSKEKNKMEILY
T3 sequence (Q01974 34-943): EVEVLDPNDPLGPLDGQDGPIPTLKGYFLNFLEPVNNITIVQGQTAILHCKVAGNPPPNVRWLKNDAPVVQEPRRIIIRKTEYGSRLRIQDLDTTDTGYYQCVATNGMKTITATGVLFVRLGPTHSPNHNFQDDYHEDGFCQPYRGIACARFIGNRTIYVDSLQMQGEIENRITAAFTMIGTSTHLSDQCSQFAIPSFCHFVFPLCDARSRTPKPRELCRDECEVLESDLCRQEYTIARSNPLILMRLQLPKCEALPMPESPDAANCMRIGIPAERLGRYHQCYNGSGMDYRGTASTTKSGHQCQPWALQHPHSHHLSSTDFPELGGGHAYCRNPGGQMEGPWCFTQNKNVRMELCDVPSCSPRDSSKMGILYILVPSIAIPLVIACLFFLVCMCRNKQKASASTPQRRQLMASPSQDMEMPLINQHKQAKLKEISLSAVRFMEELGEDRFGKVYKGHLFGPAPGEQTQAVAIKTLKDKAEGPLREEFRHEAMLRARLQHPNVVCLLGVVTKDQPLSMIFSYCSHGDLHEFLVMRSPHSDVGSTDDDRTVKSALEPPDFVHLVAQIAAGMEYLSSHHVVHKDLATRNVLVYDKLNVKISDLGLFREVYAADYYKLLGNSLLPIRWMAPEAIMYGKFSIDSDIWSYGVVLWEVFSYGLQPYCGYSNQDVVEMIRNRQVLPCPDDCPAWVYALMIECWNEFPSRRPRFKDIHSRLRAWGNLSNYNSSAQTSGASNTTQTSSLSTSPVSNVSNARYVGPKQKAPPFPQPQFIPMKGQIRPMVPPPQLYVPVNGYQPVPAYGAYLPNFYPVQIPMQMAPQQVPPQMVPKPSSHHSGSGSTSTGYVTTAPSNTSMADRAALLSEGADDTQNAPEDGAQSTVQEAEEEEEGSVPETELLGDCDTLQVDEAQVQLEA
T2 sequence (Q9Z139 30-403 limits assumed): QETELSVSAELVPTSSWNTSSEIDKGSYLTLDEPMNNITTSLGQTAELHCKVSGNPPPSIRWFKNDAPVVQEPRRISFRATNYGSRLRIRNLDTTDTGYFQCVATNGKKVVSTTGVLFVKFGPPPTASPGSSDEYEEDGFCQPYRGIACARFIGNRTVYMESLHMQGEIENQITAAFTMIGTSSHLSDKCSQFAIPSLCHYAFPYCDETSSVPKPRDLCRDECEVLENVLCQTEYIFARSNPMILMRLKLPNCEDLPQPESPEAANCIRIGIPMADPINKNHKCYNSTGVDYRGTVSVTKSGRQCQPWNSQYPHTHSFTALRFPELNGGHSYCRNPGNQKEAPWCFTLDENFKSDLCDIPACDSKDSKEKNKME

| Kd [1] [nM] | koff [1] [s⁻¹] | kon [1] [M⁻¹ s⁻¹] | EC50 (read off the curve) [2] [nM] | binding result [3] | EC50 (read off the curve) [4] [nM] | EC50 (read off the curve) [5] [µg/mL] | EC50 (read off the curve) [6] [nM] | binding result [2] | binding result [7] | binding result [8] | binding result [9] | Binder |
| --- | --- | --- | --- | --- | --- | --- | --- | --- | --- | --- | --- | --- |
| 0.0639 | 0.000116 | 1.81e+06 | ~0.2 | no binding | ~0.2 | ~0.1 | – | – | – | – | – | anti-ROR1 IgG antibody AB4 (antibody, V domains shown, Full IgG form (human IgG1 constant region, lambda light chain), expressed in CHO-S cells) VH: EVQLLESGGGLVQPGGSLRLSCAASGFTFSSYDMSWVRQAPGKGLEWVSWISPDSGSIYYADSVKGRFTISRDNSKNTLYLQMNSLRAEDTAVYYCARPTGRFDYWGQGTLVTVSS VL: QSVLTQPPSASGTPGQRVTISCSGSSSNIGNNNVNWYQQLPGTAPKLLIYYDNKRPSGVPDRFSGSKSGTSASLAISGLRSEDEADYYCGTWDASLSGYVFGGGTKLTVLG |
| 0.803 | 0.000361 | 450000 | ~0.3 | no binding | ~0.2 | ~0.2 | – | – | – | – | – | anti-ROR1 IgG antibody D2B12 (antibody, V domains shown, Full IgG form (human IgG1 constant region, lambda light chain), expressed in CHO-S cells) VH: EVQLLESGGGLVQPGGSLRLSCAASGFTFSNYDMSWVRQAPGKGLEWVSSISPSSGSSIYYADSVKGRFTISRDNSKNTLYLQMNSLRAEDTAVYYCAKAPGWCQAPSCYYDNAMDVWGQGTLVTVSS VL: QSVLTQPPSASGTPGQRVTISCSGSSSNIGNNDVSWYQQLPGTAPKLLIYDDSQRPSGVPDRFSGSKSGTSASLAISGLRSEDEADYYCGAWDDSLSGYVFGGGTKLTVLG |
| 0.0773 | 0.000119 | 1.53e+06 | ~0.3 | no binding | ~0.2 | ~0.1 | ~0.04 | – | – | – | – | anti-ROR1 IgG antibody A2F2 (antibody, V domains shown, Full IgG form (human IgG1 constant region, lambda light chain), expressed in CHO-S cells) VH: EVQLLESGGGLVQPGGSLRLSCAASGFTFSDYYMSWVRQAPGKGLEWVSSISPDGSNTYYADSVKGRFTISRDNSKNTLYLQMNSLRAEDTAVYYCAKNLRAFDYWGQGTLVTVSS VL: QSVLTQPPPASGTPGQRVTISCSGSSSNIGSNTVYWYQQLPGTAPKLLIYANSQRPSGVPDRFSGSKSGTSASLAISGLRSEDEADYYCGSWDYSLSGYVFGGGTKLTVLG |
| 0.0937 | 0.000231 | 2.47e+06 | – | no binding | ~0.2 | ~0.1 | ~0.05 | binds | binds | – | – | anti-ROR1 IgG antibody BA6 (antibody, V domains shown, Full IgG form (human IgG1 constant region, lambda light chain), expressed in CHO-S cells) VH: EVQLLESGGGLVQPGGSLRLSCAASGFTFSNYDMSWVRQAPGKGLEWVSAIYHSGSSKYYADSVKGRFTISRDNSKNTLYLQMNSLRAEDTAVYYCARGGNGAWDTGFDYWGQGTLVTVSS VL: QSVLTQPPSASGTPGQRVTISCSGSSSNIGSNDVSWYQQLPGTAPKLLIYYDNNRPSGVPDRFSGSKSGTSASLAISGLRSEDEADYYCGAWDDSLSGYVFGGGTKLTVLG |
| – | – | – | – | – | – | – | ~0.04 | – | – | binds | binds | anti-ROR1 IgG antibody A2F2 M1 (antibody, V domains shown, Full IgG form (human IgG1 constant region, lambda light chain), expressed in CHO-S cells) VH: EVQLLESGGGLVQPGGSLRLSCAASGFTFSDYYMSWVRQAPGKGLEWVSSISPDASNTYYADSVKGRFTISRDNSKNTLYLQMNSLRAEDTAVYYCAKNLRAFDYWGQGTLVTVSS VL: QSVLTQPPPASGTPGQRVTISCSGSSSNIGSNTVYWYQQLPGTAPKLLIYANSQRPSGVPDRFSGSKSGTSASLAISGLRSEDEADYYCGSWDYSLSGYVFGGGTKLTVLG |
| – | – | – | – | – | – | – | ~0.06 | – | – | binds | binds | anti-ROR1 IgG antibody BA6 M1 (antibody, V domains shown, Full IgG form (human IgG1 constant region, lambda light chain), expressed in CHO-S cells) VH: EVQLLESGGGLVQPGGSLRLSCAASGFTFSNYDMSWVRQAPGKGLEWVSAIYHSGSSKYYADSVKGRFTISRDNSKNTLYLQMNSLRAEDTAVYYCARGGNAAWDTGFDYWGQGTLVTVSS VL: QSVLTQPPSASGTPGQRVTISCSGSSSNIGSNDVSWYQQLPGTAPKLLIYYDNNRPSGVPDRFSGSKSGTSASLAISGLRSEDEADYYCGAWDDSLSGYVFGGGTKLTVLG |
| 0.024 | 3.31e-05 | 1.38e+06 | ~0.7 | no binding | ~0.6 | ~0.2 | – | – | – | – | – | anti-ROR1 IgG antibody A2F3 (antibody, V domains shown, Full IgG form (human IgG1 constant region, lambda light chain), expressed in CHO-S cells) VH: EVQLLESGGGLVQPGGSLRLSCAASGFTFSSYDMSWVRQAPGKGLEWVSWISPGGGSKYYADSVKGRFTISRDNSKNTLYLQMNSLRAEDTAVYYCARVNGRFDYWGQGTLVTVSS VL: QSVLTQPPSASGTPGQRVTISCSGSSSNIGNNNVSWYQQLPGTAPKLLIYADSHRPSGVPDRFSGSKSGTSASLAISGLRSEDEADYYCATWDYSLSGYVFGGGTKLTVLG |
